According to PMC11218660, “Functional dissection of human cardiac enhancers and noncoding de novo variants in congenital heart disease”:

T1: SRF (human, UniProt P11831 1-508)
T1 sequence: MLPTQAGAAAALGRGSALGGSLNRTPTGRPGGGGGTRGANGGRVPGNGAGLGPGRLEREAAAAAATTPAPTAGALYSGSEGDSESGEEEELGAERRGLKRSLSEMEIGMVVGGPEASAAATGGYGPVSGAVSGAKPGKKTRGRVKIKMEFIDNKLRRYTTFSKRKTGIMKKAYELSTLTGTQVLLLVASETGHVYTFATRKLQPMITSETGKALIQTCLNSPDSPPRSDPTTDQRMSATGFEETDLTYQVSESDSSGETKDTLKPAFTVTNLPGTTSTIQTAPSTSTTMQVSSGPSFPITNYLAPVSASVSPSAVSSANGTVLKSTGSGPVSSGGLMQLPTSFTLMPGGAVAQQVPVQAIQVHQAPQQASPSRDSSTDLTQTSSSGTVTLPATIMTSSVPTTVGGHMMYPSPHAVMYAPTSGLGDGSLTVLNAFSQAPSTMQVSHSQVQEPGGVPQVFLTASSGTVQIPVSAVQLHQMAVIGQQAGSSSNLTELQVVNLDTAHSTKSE

B1: GLB1L3-CRE REF (dsDNA)
DNA 1: GAGGGAGGGGAGCGATCTCTCCTTTCTTGGAGAAAATAGTATCGC
DNA 2: GCGATACTATTTTCTCCAAGAAAGGAGAGATCGCTCCCCTCCCTC
B2: ADAMTS6-CRE ALT (dsDNA)
DNA 1: AATGCATCTGCTTGCTTCATTTGGCAGATTCCTCAAGAGT
DNA 2: ACTCTTGAGGAATCTGCCAAATGAAGCAAGCAGATGCATT

Biological target: T1, SRF
Assay: EMSA; EMSA: 150 mM KCl, 0.1 mM DTT, 0.1 mM EDTA, 10 mM Tris pH 7.4; 500-800 fmol probe, 0.1-2.0 ug protein in 15-20 ul; room temperature 20 min; 6% native PAGE, SYBR
Settings: protein: recombinant; chain copies: 2; blunt

Binder	binding result
B1	binds
B2	binds
